Molecular target: T1, F12Q CAR
T1 construct: also called F12Qz CAR; F12Q chimeric receptor
Assay: flow cytometry; K562.64.86.F12Qz cells stained with soluble biotinylated CD3 epsilon, then streptavidin-PE

B1: Biotinylated Human CD3 epsilon Protein (AcroBiosystems Cat #CDE-H82E1) (other, UniProt P07766 23-126, looked up)
chain: DGNEEMGGITQTPYKVSISGTTVILTCPQYPGSEILWQHNDKNIGGDEDDKNIGSDEDHLSLKEFSELEQSGYYVCYPRGSKPEDANFYLYLRARVCENCMEMD
modifications: biotinylated
notes: Bought reagent; also called soluble CD3-epsilon protein; soluble, biotinylated CD3ε protein
  binding result: binds
